Test results as given in patent publication US20160096866A1 (University of Pennsylvania, published 2016).
Like-named read-outs stand apart in the source and are kept apart here. Bridges are numbered along the chain shown (N, C = ends). [ ]: non-standard residue; d: D form. Trp(1-Me) = Cn1cc(C[C@H](N)C(=O)O)c2ccccc21; 2Nal = N[C@@H](Cc1ccc2ccccc2c1)C(=O)O

What was measured:
complement component C3 [1] = molecular target: T1, complement component C3 (human, UniProt P01024 23-1663, limits assumed); assay: cell-based or functional assay
T1 sequence (P01024 23-1663 limits assumed): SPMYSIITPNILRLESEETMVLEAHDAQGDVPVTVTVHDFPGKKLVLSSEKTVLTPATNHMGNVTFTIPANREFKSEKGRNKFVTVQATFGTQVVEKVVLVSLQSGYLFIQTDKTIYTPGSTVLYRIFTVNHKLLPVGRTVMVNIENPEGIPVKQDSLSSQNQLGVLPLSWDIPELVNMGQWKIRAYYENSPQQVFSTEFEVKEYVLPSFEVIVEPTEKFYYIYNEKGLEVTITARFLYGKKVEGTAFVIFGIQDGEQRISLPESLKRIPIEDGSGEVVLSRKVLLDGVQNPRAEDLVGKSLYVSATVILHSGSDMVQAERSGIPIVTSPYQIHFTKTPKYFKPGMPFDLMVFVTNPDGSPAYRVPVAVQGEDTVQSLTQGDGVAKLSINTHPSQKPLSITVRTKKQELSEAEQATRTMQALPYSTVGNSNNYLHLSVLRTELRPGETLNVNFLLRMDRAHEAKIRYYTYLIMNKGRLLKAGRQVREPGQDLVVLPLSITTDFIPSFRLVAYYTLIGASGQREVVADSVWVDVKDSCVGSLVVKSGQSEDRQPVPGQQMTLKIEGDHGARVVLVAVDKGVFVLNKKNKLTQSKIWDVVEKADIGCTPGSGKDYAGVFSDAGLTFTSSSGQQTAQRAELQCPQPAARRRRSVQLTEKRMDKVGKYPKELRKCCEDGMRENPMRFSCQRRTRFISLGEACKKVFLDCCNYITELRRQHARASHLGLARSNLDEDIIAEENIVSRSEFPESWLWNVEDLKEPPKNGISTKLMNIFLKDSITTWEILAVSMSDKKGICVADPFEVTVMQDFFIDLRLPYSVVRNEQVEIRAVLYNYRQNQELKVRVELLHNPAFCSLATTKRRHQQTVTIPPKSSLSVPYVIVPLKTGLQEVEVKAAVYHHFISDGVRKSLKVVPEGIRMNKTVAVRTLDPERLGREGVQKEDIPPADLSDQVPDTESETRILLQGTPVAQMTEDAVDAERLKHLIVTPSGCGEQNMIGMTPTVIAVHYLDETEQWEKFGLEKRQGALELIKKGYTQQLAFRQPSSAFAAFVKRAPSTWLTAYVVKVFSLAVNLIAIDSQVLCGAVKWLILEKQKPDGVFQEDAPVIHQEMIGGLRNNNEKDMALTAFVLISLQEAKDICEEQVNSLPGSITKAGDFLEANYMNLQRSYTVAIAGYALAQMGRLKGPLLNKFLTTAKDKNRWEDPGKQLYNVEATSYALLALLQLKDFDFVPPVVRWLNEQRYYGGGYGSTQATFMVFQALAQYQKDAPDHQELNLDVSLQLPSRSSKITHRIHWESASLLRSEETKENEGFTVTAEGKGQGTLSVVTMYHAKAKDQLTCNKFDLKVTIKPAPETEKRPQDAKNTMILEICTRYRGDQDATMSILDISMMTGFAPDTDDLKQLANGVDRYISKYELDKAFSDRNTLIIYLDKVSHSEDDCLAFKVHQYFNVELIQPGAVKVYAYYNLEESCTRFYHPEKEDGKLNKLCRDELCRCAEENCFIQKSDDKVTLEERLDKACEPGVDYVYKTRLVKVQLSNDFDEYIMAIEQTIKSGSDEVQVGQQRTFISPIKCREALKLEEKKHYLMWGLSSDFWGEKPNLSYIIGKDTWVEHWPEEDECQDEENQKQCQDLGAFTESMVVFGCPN

complement component C3 [2] = molecular target: T1, complement component C3; assay: cell-based or functional assay; remark: listed apart in the source
complement component C3 [3] = molecular target: T1, complement component C3; assay: cell-based or functional assay; remark: listed apart in the source
complement component C3 [4] = molecular target: T1, complement component C3; assay: ITC; relative to the row 'Wild-type'
Procedure: Isothermal titration calorimetry experiments were performed using the Microcal VP-ITC calorimeter (Microcal Inc, Northampton, Mass.). Protein concentrations of 3.5-5 μM and peptide concentrations of 80-200 μM were used for these experiments. All titrations were performed in PBS (10 mM phosphate buffer with 150 mM NaCl, pH 7.4). In each experiment, the target protein, C3, was loaded into the cell, and peptide was loaded into the syringe. All experiments were performed at 25° C. and for each experiment, 2-μl peptide injections were made into the cell containing the protein. In each experiment, the raw isotherms were corrected for the heats of dilution by subtracting the isotherms representing peptide injections into the buffer. The resulting isotherms were fit to various models within the Origin 7.0 software, and the model that achieved the lowest chi square value was deemed to be appropriate for the respective dataset. Binding affinity and entropy values were plotted against log P values.
The calorimetric data obtained for the interaction of all the peptides with C3 fit to a one set of sites model with stoichiometry close to 1 (FIG. 4). […] As per the correlation, binding affinity increases with an increase in the hydrophobicity of the analog incorporated at position 4. This observation is consistent with the correlation shown between log P and the inhibitory constants.

Molecule	IC50, complement inhibition (C3b/iC3b deposition ELISA, human plasma) (complement component C3 [1]) [nM]	Relative activity (to compstatin, SEQ ID NO: 1) (complement component C3 [1]) [fold]	Activity over compstatin (complement component C3 [1]) [fold]	also measured
Ac-V4W/7(5-methoxy W)/H9A (peptide)	460	0.5	–	–
G(-1)/V4(5-OH-W)/W7(5-OH-W)/H9A/N14 (peptide)	33000	1.6	–	loss of complement inhibitory activity relative to Ac-V4W/H9A (complement component C3 [1]): 27.5 fold
G(-1)/V4(5fW)/W7(5fW)/H9A/N14 (peptide)	480	112	112	complement inhibitory activity relative to Ac-V4W/H9A (complement component C3 [1]): 2.5 fold
G(-1)/V4(6fW)/W7(6fW)/H9A/N14 (peptide)	430	126	126	complement inhibitory activity relative to Ac-V4W/H9A (complement component C3 [1]): 2.8 fold
G(-1)/V4(7-aza-W)/W7(7-aza-W)/H9A/N14 (peptide)	122000	0.44	–	–
G(-1)/V4W/H9A/N14 (peptide)	1200	45	45	–
Ac-ICV[Trp(1-Me)]QDWGAHRCTRLIEDICLPRWGCLWEDD-NH2 (disulfide 2-12, 20-26) [4(1MeW)-ABP]	–	–	–	amount needed for the same complement inhibition as Ac-V4(1-methyl-W)/H9A (complement component C3 [2]): 7 fold
Ac-ICV[2Nal]QDWGAHRCT-NH2 (disulfide 2-12; SMILES CC[C@H](C)[C@H](NC(C)=O)C(=O)N[C@H]1CSSC[C@@H](C(=O)N[C@H](C(N)=O)[C@@H](C)O)NC(=O)[C@H](CCCNC(=N)N)NC(=O)[C@H](Cc2c[nH]cn2)NC(=O)[C@H](C)NC(=O)CNC(=O)[C@H](Cc2c[nH]c3ccccc23)NC(=O)[C@H](CC(=O)O)NC(=O)[C@H](CCC(N)=O)NC(=O)[C@H](Cc2ccc3ccccc3c2)NC(=O)[C@H](C(C)C)NC1=O, also called Ac-V4(2-Nal)/W7/H9A) [Ac-V4(2-Nal)/H9A]	–	–	–	IC50, complement inhibition (C3b/iC3b deposition ELISA, human plasma) (complement component C3 [3]): 545 nM; -TΔΔS (complement component C3 [4]): -3.99 kcal/mol; ΔΔG (complement component C3 [4]): -0.1 kcal/mol; ΔΔH (complement component C3 [4]): 3.87 kcal/mol
ICVWQDWGAHRCTK (N-terminal acetyl; 1-methyltryptophan at position 4; lysine added at the C-terminus with PEG 5000 linked to its side chain) [Ac-V4(1-methyl-W)/H9A-K-PEG 5000]	–	–	–	amount needed for the same complement inhibition as Ac-V4(1-methyl-W)/H9A (complement component C3 [2]): 7 fold
